In article PMC7959301 one finds percent of input conjugated data, which are given here for one substance.

The assay addresses SpyCatcher-fused ferritin protein (Streptococcus pyogenes | not stated). The assay is described as follows: SDS-PAGE of the covalent SpyTag/SpyCatcher adduct.

For 6 × His-SpyTag-AE2F SOSIP.664, the percent of input conjugated lay within 80 to 90%.
